Experimental data: patent US20150203579A1 (Regeneron, published 2015)

T1: monkey PD-1 with mFc (monkey)
T1 construct: also called monkey PD-1-mFc; monkey PD-1 dimer
T1 chain: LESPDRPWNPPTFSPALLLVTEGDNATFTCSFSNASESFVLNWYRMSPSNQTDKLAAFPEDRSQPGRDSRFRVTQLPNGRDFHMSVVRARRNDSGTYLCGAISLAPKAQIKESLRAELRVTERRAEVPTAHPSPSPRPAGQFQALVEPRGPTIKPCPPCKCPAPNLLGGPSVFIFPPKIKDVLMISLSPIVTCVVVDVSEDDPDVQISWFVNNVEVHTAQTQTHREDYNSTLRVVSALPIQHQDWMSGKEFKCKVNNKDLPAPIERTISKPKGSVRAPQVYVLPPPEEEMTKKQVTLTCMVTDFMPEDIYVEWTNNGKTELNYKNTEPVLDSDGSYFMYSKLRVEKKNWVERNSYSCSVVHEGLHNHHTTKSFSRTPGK

B1: H4xH9045P (antibody, V domains shown)
VH: EVQLVESGGGLVQPGRSLRLSCAASGFTFDDYDMHWVRQAPGKGLEWVSGSGWNRGSLGYADSVKGRFTISRDNAKKSLYLQMNSVRVEDTALYYCAKGFVVVSAAYFDYWGQGTLVTVSS
VL: not shown
notes: human IgG4 Fc with 2 or more amino acid changes (US20100331527); also called H4xH9045P2
B2: H4xH9128P2 (antibody, V domains shown)
VH: QVQLQESGPGLVKPSETLSLTCTVSGGSISSYHWNWIRQSPGKGLEWIGYIYYIGSTDYNPSLESRVTISVDTSKNQFSLKLSSVTAADTAVYYCARVPVGATGASDVWGQGTMVTVSS
VL: not shown
notes: human IgG4 Fc with 2 or more amino acid changes (US20100331527)
B3: H4xH9037P (antibody, V domains shown)
VH: EVQLVESGGGLVQPGGSLRLSCAASGFTFDDYAMHWVRQAPGKGLEWVSGIGWSSGSIGYADSVKGRFTISRDNAKNSLYLQMDSLRPEDSALYYCAKAYTFMITLYFDYWGQGTLVTVSS
VL: not shown
notes: human IgG4 Fc with 2 or more amino acid changes (US20100331527); also called H4xH9037P2
B4: H4xH9145P2 (antibody, V domains shown)
VH: QVQLVESGGGVVQPGRSLRLSCSASGFTFSAYAMHWVRQAPGKGLEWVAAISYGGSDKYYADSVKGRFTISRDNSKNTLYLQMNSLRTDDTAVYYCAKSAHWNFFFDYWGQGTLVTVSS
VL: not shown
notes: as for B2
B5: H2aM7780N (antibody, V domains shown)
VH: QVQLVESGGGVVQSGRSLRLSCAASGFTFSSYGMHWVRQAPGKGLEWVAVIWYDGSNIYYSDSVKGRFTISRANSKNTLYLQMNSLRAEDTAVYYCARPGHWNYFFEYWGQGTLVTVSS
VL: DIQMTQSPSSLSASVGDRVTITCRASQSINNYLNWYQQKPGKAPKLLIYTASSLQSGVPSRFSGSGSGTDFTLTISSLQPEDFATYYCQQSYSTPPLTFGQGTQLEIK
notes: human variable regions, mouse IgG2a Fc; also called H2M7780N
B6: H2aM7788N (antibody, V domains shown)
VH: EVQLVESGGGLVQPGGSLRLSCGASGFTFRNYDMHWVRQITGKGLEWVSAIGSAGDTYYPDSVKGRFTISRENAKNSLYLQMNSLRVGDTAVYYCTRDIHCSSTRCYGMDVWGQGTTVTVSS
VL: not shown
notes: human variable regions, mouse IgG2a Fc; also called H2M7788N
B7: H4H9057P2 (antibody, V domains shown)
VH: EVQLVESGGGLVQSGRSLRLSCAASGFTFDDYAMHWVRQPPGKGLEWVSGINWNRGRTGYADSVKGRFTISRDNAKNSLYLQMNDLRVEDTALYYCAKAEQWLDEGYFDYWGQGTLVTVSS
VL: not shown
notes: fully human; H4H prefix (human IgG4 Fc)
B8: H1M7799N (antibody, V domains shown)
VH: EVQLVESGGGLVQPGGSLRLSCAASGFTVSNNYMSWVRQAPGKGLEWVSVIYSGGFTYYTDSVKGRFTISRHNSKNTLYLQMNSLRAEDTAVYYCARYYYDTSDYWTFFDYWGQGTLVTVSS
VL: EIVMTQSPATLSVSPGERATLSCRASQSVSSNLAWYQQKPGQAPRLLIYGASTRATGIPARFSGSGSGTEFTLTISSLQSGDFAVYYCQQYNNWPLTFGGGTKVEIN
notes: human variable regions, mouse IgG1 Fc
B9: H1M7800N (antibody, V domains shown)
VH: B8 VH
VL: B8 VL
notes: as for B8

Target: T2, recombinant human PD-L1 expressed with a C-terminal mouse IgG2a Fc tag (human)
T2 construct: also called hPD-L1-mFc; hPD-L1.mFc
Experiment: SPR Biacore 3000: 500 nM mAb alone (no hPD-1.hFc) over captured hPD-L1.mFc surface, control

Row | 500 nM of anti-PD-1 monoclonal antibody (RU) | Binder
1 | -4 | B1
2 | -5 | B2
3 | -4 | B3
4 | -8 | B4

Target: PD-1 chimera: extracellular domain of human PD-1 with trans-membrane and cytoplasmic domains of human CD300a, … (human, UniProt Q9UGN4 181-299, limits assumed)
Experiment: cell-based or functional assay

Row | Concentration (M) of Antibody at 150% activation [M] | Emax mean [%] @ 100 nM [%] | Binder
5 | 2.23e-08 | 176 | B1
6 | 6.52e-09 | 228 | B5
7 | 4.72e-09 | 189 | B6
8 | 2.68e-08 | 212 | B7
9 | 2.82e-09 | 195 | B3
10 | 2.97e-08 | 183 | B8
11 | 1.65e-08 | 182 | B9
12 | 2.4e-09 | 185 | B4

Target: T3, full length human PD-1 on HEK293/hPD-1 cells (human, UniProt Q15116 25-288)
Experiment: FACS dose response, HEK293/hPD-1 cells

Row | EC50 [nM] | Max Geom. Mean MFI @ 100 nM [MFI] | Binder
13 | 0.0917 | 24700 | B1
14 | 1.69 | 18400 | B5
15 | 0.321 | 14800 | B6
16 | 0.236 | 20000 | B7
17 | 0.674 | 36400 | B3
18 | 0.0332 | 24400 | B8
19 | 0.048 | 20800 | B9
20 | 0.232 | 30600 | B4

Target: T4, recombinant human PD-1 dimer expressed with a C-terminal mouse IgG2a Fc tag (human)
T4 construct: also called hPD-1-mFc
Experiment: competition ELISA: 1.5 nM hPD-1-mFc to coated hPD-L1-hFc

Row | % blocking at 200 nM antibody [%] | IC50 [nM] | Binder
21 | 98 | – | B1
22 | 94 | – | B5
23 | 98 | – | B2
24 | 74 | – | B6
25 | 98 | – | B7
26 | 100 | 0.89 | B3
27 | 82 | – | B8
28 | 83 | – | B9
29 | 90 | 0.93 | B4

Target: T1, monkey PD-1 with mFc
Experiment: SPR, captured mAb, 37 C;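 also: Real-time Biacore surface plasmon resonance biosensor readout of PD-1 reagent binding to purified anti-PD-1 monoclonal antibodies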

Row | 100 nM Monkey PD-1-mFc Bound (RU) | Kd [nM] | koff [s⁻¹] | kon [M⁻¹ s⁻¹] | t1/2 [min] | Binder
30 | 65 | 5.66 | 0.00136 | 241000 | 8 | B1
31 | 60 | 4.36 | 0.000816 | 187000 | 14 | B2
32 | 28 | 29.6 | 0.00477 | 161000 | 2.4 | B7
33 | 24 | 3.21 | 0.000897 | 280000 | 13 | B3
34 | 94 | 4.04 | 0.000609 | 151000 | 19 | B4

Target: T1, monkey PD-1 with mFc
Experiment: SPR, captured mAb, 25 C;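 also: purified anti-PD-1 antibodies tested on Biacore 4000 or T200 instruments, rate constants obtained via 1:1 binding model fit, with KD as kd/ka and half-life as ln2/(60·kd)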

Row | 100 nM Monkey PD-1-mFc Bound (RU) | Kd [nM] | koff [s⁻¹] | kon [M⁻¹ s⁻¹] | t1/2 [min] | Binder
35 | 78 | 1.72 | 0.000168 | 97800 | 69 | B1
36 | 64 | 1.57 | 0.000124 | 78700 | 94 | B2
37 | 75 | 2.98 | 0.000303 | 102000 | 38 | B7
38 | 58 | 0.912 | 0.000137 | 150000 | 84 | B3
39 | 84 | 2.08 | 0.00015 | 72400 | 77 | B4

Target: T5, dimeric biotinylated human PD-1 protein with a C-terminal human Fc tag (human, biotinylated (sites not given))
T5 construct: also called biot-hPD-1-hFc
Experiment: competition ELISA: 200 pM biot-hPD-1-hFc to coated hPD-L1-mFc

Row | % blocking at 50 nM antibody [%] | IC50 [nM] | Binder
40 | 95 | 0.13 | B1
41 | 100 | – | B5
42 | 97 | 0.19 | B2
43 | 100 | – | B6
44 | 95 | – | B3
45 | 100 | – | B8
46 | 99 | – | B9
47 | 97 | 0.35 | B4

Target: T3, full length human PD-1 on HEK293/hPD-1 …
Experiment: FACS, 100 nM mAb, HEK293/hPD-1 cells;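 also: antibodies incubated with cells for 15-30 min on ice, bound antibody detected through a secondary F(ab′)2 by flow cytometry, with parental HEK293 cells tested in parallel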

Row | MFI [MFI] | Binder
48 | 8880 | B1
49 | 23700 | B5
50 | 9080 | B2
51 | 23100 | B6
52 | 6500 | B7
53 | 8790 | B3
54 | 6860 | B8
55 | 6810 | B9
56 | 11600 | B4

Target: T6, recombinant human PD-1 expressed with a C-terminal human IgG1 Fc tag (human)
T6 construct: also called hPD-1-hFc; hPD1-hFc
Experiment: SPR Biacore 3000: 100 nM hPD-1.hFc + 500 nM mAb to captured hPD-L1.mFc;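 also: inhibition study with anti-PD-1 mAbs, SPR responses tracked in real time and read at the close of each step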

Row | % Blocking [%] | binding of the mixture (RU) | Binder
57 | 105 | -5 | B1
58 | 105 | -5 | B2
59 | 43 | 57 | B7
60 | 104 | -4 | B3
61 | 106 | -6 | B4

Target: T4, recombinant human PD-1 dimer expressed …
Experiment: competition ELISA: 1.5 nM hPD-1-mFc to coated hPD-L1-hFc; * below theoretical bottom 7.5E-10 M

Row | IC50 [nM] | Binder
62 | 0.28 | B1
63 | 0.69 | B5
64 | 0.64 | B2
65 | 0.22 | B6
66 | 0.19 | B7
67 | 0.22 | B8
68 | 0.6 | B9

Target: T3, full length human PD-1 on HEK293/hPD-1 …
Experiment: FACS, 100 nM mAb

Row | ratio of MFI HEK293/hPD-1 to HEK293 parental cells | Binder
69 | 93.7 | B1
70 | 73.8 | B5
71 | 75.7 | B6
72 | 46.1 | B7
73 | 81.4 | B3
74 | 26.9 | B8
75 | 24.7 | B9
76 | 51.2 | B4

Target: T4, recombinant human PD-1 dimer expressed …
Experiment: BLI Octet: 100 nM hPD-1-mFc + 500 nM mAb to captured hPD-L1-hFc

Row | % Blocking [%] | binding of the mixture (nm) | Binder
77 | 114 | -0.01 | B5
78 | 100 | 0 | B6
79 | 100 | 0 | B8
80 | 100 | 0 | B9

Target: T5, dimeric biotinylated human PD-1 protein …
Experiment: competition ELISA: 200 pM biot-hPD-1-hFc to coated hPD-L1-mFc; * below theoretical bottom 1.0E-10 M

Row | IC50 [nM] | Binder
81 | 0.091 | B5
82 | 0.065 | B6
83 | 0.078 | B3
84 | 0.059 | B8
85 | 0.065 | B9
